Results on two molecules are retold here after US20050042213A1, “Methods and pharmaceutical compositions for modulating heparanase activation and uses thereof” (InSight Biopharmaceuticals Ltd., priority 2003, published 2005).

In this assay the target is T1, pro-heparanase (H60) (Homo sapiens, UniProt Q9Y251, K307R).
T1 sequence (Q9Y251 36-543 K307R): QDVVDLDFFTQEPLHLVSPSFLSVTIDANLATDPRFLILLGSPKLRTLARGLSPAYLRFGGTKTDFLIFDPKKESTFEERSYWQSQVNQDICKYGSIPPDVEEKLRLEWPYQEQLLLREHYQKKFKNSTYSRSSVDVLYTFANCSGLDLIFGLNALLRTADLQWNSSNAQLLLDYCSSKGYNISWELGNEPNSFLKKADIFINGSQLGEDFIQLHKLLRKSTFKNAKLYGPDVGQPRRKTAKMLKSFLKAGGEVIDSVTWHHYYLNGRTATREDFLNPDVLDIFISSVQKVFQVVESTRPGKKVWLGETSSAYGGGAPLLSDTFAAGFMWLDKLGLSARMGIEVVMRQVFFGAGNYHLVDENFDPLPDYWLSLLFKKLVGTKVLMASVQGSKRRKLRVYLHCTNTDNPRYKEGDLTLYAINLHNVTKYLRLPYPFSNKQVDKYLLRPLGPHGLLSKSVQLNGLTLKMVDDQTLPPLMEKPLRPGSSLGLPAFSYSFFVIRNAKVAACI
Put plainly: Circular dichroism spectrometry of pro-heparanase. Also on record: key to a helix / β strand / β turn / Un-ordered: fraction of secondary structure (0-1). Conditions: fraction of secondary structure of H60. The procedure: Circular Dichroism spectrometry—Circular Dichroism spectra were recorded using a JASCO 500 spetropolarimeter. Far Ultraviolet measurements (260-200 nm) were performed in a 0.1 mm demountable cuvette at 25° C., scanning at a rate of 10 nm/min. Pro-heparanase was assayed at a concentration of 0.72 mg/ml in 20 mM sodium phosphate buffer pH 6.8 supplemented with 300 mM NaCl. Effect of heparin on pro-heparanase spectra was determined at a concentration of 100 μM, and the inhibitor was added at a concentration of 15 μM. Base-line recordings were performed in the presence and absence of heparin to correct the pro-heparanase spectra.
In general terms: CD spectra are sensitive to the conformation of chiral molecules.

B1: H60 − heparin: purified 60 kDa pro-heparanase without heparin (protein)
chain: QDVVDLDFFTQEPLHLVSPSFLSVTIDANLATDPRFLILLGSPKLRTLARGLSPAYLRFGGTKTDFLIFDPKKESTFEERSYWQSQVNQDICKYGSIPPDVEEKLRLEWPYQEQLLLREHYQKKFKNSTYSRSSVDVLYTFANCSGLDLIFGLNALLRTADLQWNSSNAQLLLDYCSSKGYNISWELGNEPNSFLKKADIFINGSQLGEDFIQLHKLLRKSTFKNAKLYGPDVGQPRRKTAKMLKSFLKAGGEVIDSVTWHHYYLNGRTATREDFLNPDVLDIFISSVQKVFQVVESTRPGKKVWLGETSSAYGGGAPLLSDTFAAGFMWLDKLGLSARMGIEVVMRQVFFGAGNYHLVDENFDPLPDYWLSLLFKKLVGTKVLMASVQGSKRRKLRVYLHCTNTDNPRYKEGDLTLYAINLHNVTKYLRLPYPFSNKQVDKYLLRPLGPHGLLSKSVQLNGLTLKMVDDQTLPPLMEKPLRPGSSLGLPAFSYSFFVIRNAKVAACI
The molecule B1 gave an Un-ordered of 0.33, an a helix of 0.29, a β strand of 0.26 and a β turn of 0.12.

B2: H60 + heparin: 60 kDa pro-heparanase in the presence of heparin (protein, UniProt Q9Y251 36-543, looked up)
pro-form: QDVVDLDFFTQEPLHLVSPSFLSVTIDANLATDPRFLILLGSPKLRTLARGLSPAYLRFGGTKTDFLIFDPKKESTFEERSYWQSQVNQDICKYGSIPPDVEEKLRLEWPYQEQLLLREHYQKKFKNSTYSRSSVDVLYTFANCSGLDLIFGLNALLRTADLQWNSSNAQLLLDYCSSKGYNISWELGNEPNSFLKKADIFINGSQLGEDFIQLHKLLRKSTFKNAKLYGPDVGQPRRKTAKMLKSFLKAGGEVIDSVTWHHYYLNGRTATKEDFLNPDVLDIFISSVQKVFQVVESTRPGKKVWLGETSSAYGGGAPLLSDTFAAGFMWLDKLGLSARMGIEVVMRQVFFGAGNYHLVDENFDPLPDYWLSLLFKKLVGTKVLMASVQGSKRRKLRVYLHCTNTDNPRYKEGDLTLYAINLHNVTKYLRLPYPFSNKQVDKYLLRPLGPHGLLSKSVQLNGLTLKMVDDQTLPPLMEKPLRPGSSLGLPAFSYSFFVIRNAKVAACI
modifications: pro-form with heparin
notes: 60 kDa pro-heparanase in the presence of heparin
B2 came in with an Un-ordered of 0.3, an a helix of 0.44, a β strand of 0.26 and a β turn of 0.
